Laboratory results taken from US20120090043A1, “TARGETS FOR RETROVIRUS ASSOCIATED DISEASES” (priority 2009, published 2012).

B1: ZNF614: human host interactor protein, Gene ID 80110, expressed from transfected ORF vector (protein)
chain: MIKTQESLTLEDVAVEFSWEEWQLLDTAQKNLYRDVMVENYNHLVSLGYQTSKPDVLSKLAHGQEPWTTDAKIQNKNCPGIGKVDSHLQEHSPNQRLLKSVQQCNGQNTLRNIVHLSKTHFPIVQNHDTFDLYRKNLKSSLSLINQKRRHGINNPVEFIGGEKTLLHGKHERTHTKTRFSENAKCIHTKFQVFKHQRTQKIEKPHACIECEQTFLRKSQLIYHENICIQENPGSGQCEKLSRSVLFTKHLKTNTTDKICIPNEYRKGSTVKSSLITHQQTHTEEKSYMCSECGKGFTMKRYLIAHQRTHSGEKPYVCKECGKGFTVKSNLIVHQRTHTGEKPYICSECGKGFTMKRYLVVHQRTHTGEKPYMCSECGKGFTVKSNLIVHQRSHTGEKSYICSECGKGFTVKRTLVIHQRTHTGEKSYICNECGKGFTTKRTLIIHQRTHTGEKPYECNECGKAFSQKICLIQHERCHTGKTPFVCTECGKSYSHKYGLITHQRIHTGEKPYECNECGKAFTTKSVLNVHQRTHTGERPYGCSDCEKAFSHLSNLVKHKKMHTREMGRISQVENSCNGESQLLPYK
B2: C10orf3: human host interactor protein, Gene ID 55165, expressed from transfected ORF vector (protein)
chain: MSSRSTKDLIKSKWGSKPSNSKSETTLEKLKGEIAHLKTSVDEITSGKGKLTDKERHRLLEKIRVLEAEKEKNAYQLTEKDKEIQRLRDQLKARYSTTTLLEQLEETTREGERREQVLKALSEEKDVLKQQLSAATSRIAELESKTNTLRLSQTVAPNCFNSSINNIHEMEIQLKDALEKNQQWLVYDQQREVYVKGLLAKIFELEKKTETAAHSLPQQTKKPESEGYLQEEKQKCYNDLLASAKKDLEVERQTITQLSFELSEFRRKYEETQKEVHNLNQLLYSQRRADVQHLEDDRHKTEKIQKLREENDIARGKLEEEKKRSEELLSQVQFLYTSLLKQQEEQTRVALLEQQMQACTLDFENEKLDRQHVQHQLHVILKELRKARNQITQLESLKQLHEFAITEPLVTFQGETENREKVAASPKSPTAALNESLVECPKCNIQYPATEHRDLLVHVEYCSK

Key:
[1] = test system: HIV-1 LTR promoter transactivation by HIV-1 Tat; test: Transactivation assay, HIV-1 LTR luciferase reporter with HIV-1 Tat; format: cell-based; settings: HEK293 cells co-transfected with pHIV1LTR-Luc, HIV-1 Tat and the human ORF; relative luciferase activity 24 h post-transfection; positive if >=2 or <=0.5 and p<0.05
Summary of the method: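 HEK293 cells (10^4) were calcium-phosphate co-transfected with the HIV-1 LTR-luciferase reporter plus HIV-1 Tat, or the HTLV-1 LTR-luciferase reporter plus HTLV-1 Tax, each with a human ORF expression plasmid. A hit required relative activity ≥2 or ≤0.5 with paired t-test p<0.05.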

[2] = test system: HTLV-1 LTR promoter transactivation by HTLV-1 Tax; test: Transactivation assay, HTLV-1 LTR luciferase reporter with HTLV-1 Tax; format: cell-based; settings: HEK293 cells co-transfected with pHTLV1LTR-Luc, HTLV-1 Tax and the human ORF; relative luciferase activity 24 h post-transfection; positive if >=2 or <=0.5 and p<0.05

| Molecule | HIV_LTR transactiv. [1] [fold change] | HTLV_LTR transactiv. [2] [fold change] |
| --- | --- | --- |
| B1 | 0.28 | 5.24 |
| B2 | 2.79 | 0.41 |
